Publication PMC6716341 (ACS Central Science, 2019)

Experiments:
[1] = In vitro aging: isomerization of Asp1 and Asp7; type: physicochemical; conditions: from the rates in Figure 4
NSC-hTERT = conditions: incubated with NSC-hTERT cells; cited from earlier work
SK-N-SH = conditions: incubated with SK-N-SH cells; cited from earlier work
SH-SY5Y = conditions: incubated with SH-SY5Y cells; cited from earlier work

Row | Substance | degree of isomerization within a 30 h time frame [1] [%] | toxicity relative to canonical form (NSC-hTERT) | toxicity relative to canonical form (SK-N-SH) | toxicity relative to canonical form (SH-SY5Y)
1 | Aβ: amyloid beta in general; isomerization estimated from the measured rates | ~0.2 |  |  | 
2 | isomerized Aβ1–42: isomerized Aβ1–42 studied by Makarov and co-workers |  | more toxic than the canonical form | more toxic than the canonical form | more toxic than the canonical form
